Experimental data taken from US20160166613A1.

What was measured:
[1] = molecular target: CD19-CAR-FRBl2 (CD19 chimeric antigen receptor with two tandem FRBl domains, coexpressed with iCaspase9 from iC9-CAR(19).FRBl2)
[2] = molecular target: CD19-CAR-FRBl2 (CD19 chimeric antigen receptor with two tandem FRBl domains, coexpressed with iCaspase9 from iC9-CAR(19).FRBl2); assay: cell-based or functional assay
[3] = molecular target: Her2-CAR-FRBl2 (Her2 chimeric antigen receptor with two tandem FRBl domains fused to the carboxy terminus); assay: cell-based or functional assay
Her2-CAR-FRBl2 (Her2 chimeric antigen receptor with two tandem FRBl domains fused to the carboxy terminus), sequence (chain, as listed by the source mutant limits assumed): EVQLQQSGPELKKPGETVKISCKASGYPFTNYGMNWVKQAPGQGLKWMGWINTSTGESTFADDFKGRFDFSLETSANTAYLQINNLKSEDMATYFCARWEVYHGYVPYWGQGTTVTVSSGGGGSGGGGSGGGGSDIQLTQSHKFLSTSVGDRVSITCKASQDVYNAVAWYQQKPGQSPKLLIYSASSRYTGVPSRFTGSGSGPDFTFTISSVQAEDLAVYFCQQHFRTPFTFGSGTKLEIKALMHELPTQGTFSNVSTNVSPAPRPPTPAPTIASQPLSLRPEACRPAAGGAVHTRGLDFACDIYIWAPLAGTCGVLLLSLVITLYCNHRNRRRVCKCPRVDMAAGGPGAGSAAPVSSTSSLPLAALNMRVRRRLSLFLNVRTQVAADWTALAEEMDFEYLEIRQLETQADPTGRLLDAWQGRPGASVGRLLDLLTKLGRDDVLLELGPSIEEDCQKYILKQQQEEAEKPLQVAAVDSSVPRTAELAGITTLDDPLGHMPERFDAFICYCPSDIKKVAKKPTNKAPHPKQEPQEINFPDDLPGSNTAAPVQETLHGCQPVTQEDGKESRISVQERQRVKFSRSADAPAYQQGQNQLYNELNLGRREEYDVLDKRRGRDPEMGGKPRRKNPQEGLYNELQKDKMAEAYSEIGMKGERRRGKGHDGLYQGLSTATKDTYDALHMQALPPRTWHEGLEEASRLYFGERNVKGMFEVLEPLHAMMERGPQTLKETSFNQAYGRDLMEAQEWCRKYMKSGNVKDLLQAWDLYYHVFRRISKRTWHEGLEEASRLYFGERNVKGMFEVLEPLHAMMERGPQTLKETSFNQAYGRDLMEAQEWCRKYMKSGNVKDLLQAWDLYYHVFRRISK

CD19-CAR-FRBl2 (CD19 chimeric antigen receptor with two tandem FRBl domains, coexpressed with iCaspase9 from iC9-CAR(19).FRBl2), sequence (chain, as listed by the source mutant limits assumed): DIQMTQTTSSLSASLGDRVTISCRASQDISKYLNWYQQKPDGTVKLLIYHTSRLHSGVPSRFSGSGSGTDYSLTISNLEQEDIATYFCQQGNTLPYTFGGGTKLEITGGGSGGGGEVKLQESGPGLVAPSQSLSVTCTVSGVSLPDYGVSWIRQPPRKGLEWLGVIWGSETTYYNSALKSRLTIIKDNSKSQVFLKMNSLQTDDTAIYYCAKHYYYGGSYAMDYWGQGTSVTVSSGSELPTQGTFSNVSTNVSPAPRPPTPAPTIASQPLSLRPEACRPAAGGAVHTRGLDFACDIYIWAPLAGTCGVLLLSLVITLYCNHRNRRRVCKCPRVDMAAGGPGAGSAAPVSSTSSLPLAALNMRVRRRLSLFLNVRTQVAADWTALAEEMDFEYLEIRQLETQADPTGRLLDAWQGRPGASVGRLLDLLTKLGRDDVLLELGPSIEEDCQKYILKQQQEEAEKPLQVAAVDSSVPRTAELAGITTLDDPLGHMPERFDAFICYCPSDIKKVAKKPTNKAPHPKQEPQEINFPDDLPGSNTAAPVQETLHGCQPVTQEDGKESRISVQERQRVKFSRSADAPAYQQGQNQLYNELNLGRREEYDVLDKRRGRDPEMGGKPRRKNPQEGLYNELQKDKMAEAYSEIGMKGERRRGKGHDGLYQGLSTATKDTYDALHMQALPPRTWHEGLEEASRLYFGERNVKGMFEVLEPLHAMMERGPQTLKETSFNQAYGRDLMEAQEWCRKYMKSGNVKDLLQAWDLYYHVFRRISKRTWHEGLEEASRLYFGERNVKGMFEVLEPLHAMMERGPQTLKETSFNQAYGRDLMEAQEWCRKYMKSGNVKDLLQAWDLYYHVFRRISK

- IC50 (read off the curve): concentration of the dimerizer rapamycin (not of a protein) at half-maximal loss of SEAP activity, 293 cells expressing iC9.CAR(19)-FRBl2 [1]: 1 nM
- SEAP activity (constitutive SRα-SEAP reporter in transfected 293 cells, overnight with half-log dilutions of rapamycin) (% decrease of SEAP activity) [2]: 50
- SEAP activity (constitutive SRα-SEAP reporter in transfected 293 cells, overnight with half-log dilutions of rapamycin) (% decrease of SEAP activity) [3]: 50
Substance: inducible Caspase-9 (FKBP12v36 - SGGGSG linker - dCaspase9) (enzyme)
